{"source": "the nanobody polyreactivity screen of Harvey et al. (2022)", "data": [{"assay": "yeast display, Sf9 membrane polyspecificity reagent, FACS + sequencing; frameworks hold sequencing errors", "how_it_was_run": "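Using colony PCR, genes from sorted yeast display clones were amplified, then sequenced on MiSeq at 2 × 250 and filtered by CDR length. The clones had been stained with 10% biotinylated, detergent-solubilized Sf9 membrane reagent for 1 hour at 4 °C and sorted by FACS into low and high (top ~1%) gates on anti-HA and streptavidin fluorescence. Polyreactivity labels come from the gate of origin.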", "values": [{"sequence": "QVQLVESGGGLVQAGGSLRLSCAASGITSSYAMGWYRQAPGKERELVAAISRGGSTYYADSVKGRFTISRDNAKNTVYLLLNSLKPEDTAVYYCNKRRYPYGWGQGTLVTVSS", "polyreactivity (PSR sort gate)": "high polyreactivity"}, {"sequence": "QVQLVETGGGLVQAGGSLSLSCAASGRTSKINAMGWYRQAPGKERELVASISRTGGTTYYADSVKGRFTISRDNAKNTVYLQMNSVKPEDTAVYYCAVSDFGLRDSLTIYDEYDYWGQGTQVTVSS", "polyreactivity (PSR sort gate)": "high polyreactivity"}, {"sequence": "QVQLVESGGGLVQAGGSLRLSCAASGRTFPGNAMGWYRQAPGKERELVAAISWSGTRTYYADSVKGRFTISRDNAKNTVYLQINSLKPEDTAVYYCAARRYGVRSYGFDSWGQGTQVTVSS", "polyreactivity (PSR sort gate)": "high polyreactivity"}, {"sequence": "QVQLVESGGGLVQAGGSLRLSCAASGFTLQVYDMGWYRQAPGKERELVADISGSGDSTNYADSVKGRFTISRDNAKNTVYLQMNSLKPEDNAVYYCAAEVRGGYYGYDYWGQGTQVTVSS", "polyreactivity (PSR sort gate)": "low polyreactivity"}, {"sequence": "QVQLVESGGGLVQAGGSLRLSCAASGSIFEWNDMGWYRQAPGKEREFVAAITSTDDGTYYADSVKGRFTISRDNAKNTVYLQMNSLKPEVTAVYYCAVDYWDVPYYWGQGTQVTVSS", "polyreactivity (PSR sort gate)": "low polyreactivity"}, {"sequence": "QVQLQESGGGLVQARGSLRLSCSASGNISVNGFMGWYRQAPGNVRELVASIGIGGTTYYADSVKGRFSISRDNAKNTVYLQMNSLKPEDTSVYYCAASYLYYAYSYWYQGTQVTVSS", "polyreactivity (PSR sort gate)": "low polyreactivity"}, {"sequence": "QVQLVESGGGLVQAGGSLRLSCAASGSIFSYYAMGWYRQAPGKERELVASISWNGTSTYYADSVKGRFTISRDNAKNTVYLQMNSLKPEDTAVYYCNAVLSGWGYFYGLNYWGQGTQVTVSS", "polyreactivity (PSR sort gate)": "low polyreactivity"}, {"sequence": "QVQLVESGGGLVQAGGSLRLSCAASGRTFFPYAMGWYRPAPGKERELVAAITRSGSTYYADSVKGRFTISRDNAKNTVYLQMNSLKPEDTAVYYCAADYSPWRSDFDYWGQGTQVTVSS", "polyreactivity (PSR sort gate)": "low polyreactivity"}, {"sequence": "QVHLVESGGCLVQAGGSLRLSCAASGSIFGDYVMAWYRQAPGKERELVAAITRGGSTYYADSVKGRFTFSRDNAKNTVYLQMNSLKPEDTAVYYCAASYYFVQWGWYYYWGQGTQVTVSS", "polyreactivity (PSR sort gate)": "low polyreactivity"}, {"sequence": "QVQLVESGGGLVQAGGSLRFSCAASGFIFVRYAMGWYRQAPGKERELVAAISGSGGRTYYADSVKGRFTISRDNAKNTVYLQMTSLKPEDTAVYYCNGTSYTYGYLPYDYWGQGTQVTVSS", "polyreactivity (PSR sort gate)": "high polyreactivity"}, {"sequence": "QVQLVESGGGLVQAGGSLRLSCAASGSIFLYYTMGWYRQAPGKERELVAAITWGGGTTYYADSVKGRFTISRDNAKNTVYLQMNSLKPEDTAVYYCAAEGSYPRMDYWGQGTQVTVSS", "polyreactivity (PSR sort gate)": "low polyreactivity"}, {"sequence": "QVQLVESGGGLVQAGGSLRLSCSASGRTFRKYAMGWYRQPPGKESELVAAISWSGGSTYYANSVKGRFTISRDNAKNTVYLQMNSLKPEDTAVYYCAAVPVHTGSLYWGFTTGYDYWGQGTQVTVSS", "polyreactivity (PSR sort gate)": "low polyreactivity"}, {"sequence": "QVQLVESGGGLVQAGGSLRLSCAASGGTPQNAMGWYRQAPGKDRELVAAISKRGGSTYYADSVKGRFTISRDNAKNTGYLQMNSLKPEDTAVYDCAAVSQRAQHTSEYDYWGQGTQVTVSS", "polyreactivity (PSR sort gate)": "high polyreactivity"}, {"sequence": "LVQLVESGGRLVQAGGSLRLTCAATGSIFDGNAKGWYRQAPGKDRELVADISRGGSTYYADSVKGRFTISSDNAKNTVYFQLNSLKPEDTAVYDCTVEFFFWPYEYGYWGQGTQVTVSS", "polyreactivity (PSR sort gate)": "low polyreactivity"}, {"sequence": "QVQLVESRGGLVQAGGSLRLSCAASGYTFDWYTMGWYRQAPGKERELVAAISASGVRTYYADSVKGRFTISRDNAKNTVYLQMNSLKPEDTAVYYCYRVYSTSRITQYEFDYWGLGTQVTVSS", "polyreactivity (PSR sort gate)": "low polyreactivity"}, {"sequence": "QVQLVESGGGLVQAGGILRLSCPASGRTFEYYAMGWYRQAPGKERELVASISFGGGSTYADSVKGRFTISRDNAKNTVYLQMNSLKPEDTAVYYCAATGGWYKHWFDYWGQGTQVTVSS", "polyreactivity (PSR sort gate)": "low polyreactivity"}, {"sequence": "QVQLVESGGGLVQAGGSLRLSCAASGSIFLYYTMGWYRQEPGKERELVAAITWSGASTYYADSVKGRFTISRDNAKNTVYLQMNSLKPEDTAVYYCATRYRYRYWGQGTQVTVSS", "polyreactivity (PSR sort gate)": "high polyreactivity"}, {"sequence": "QVQLEESRGGLVQAGGSLRLSCAASGSIFGYNTMGWYRQAPRKERELVAAISKSGGSTYYADSEKGRFTLSRDTEKNTVYLQMNSLKLEDTAVYYCATYAKQLSPYYYWGQGIQVTVSS", "polyreactivity (PSR sort gate)": "high polyreactivity"}, {"sequence": "QVQLVESGGGLVQAGGSLRLSCAASGFTFVKNVMGWYRQAPGKERELVADITRRGGTTYYADSVKGRFTISRDNAKNTVYLQMNSLKPEDTAVYYCATEYWYGIYGYDYWGQGTQVTVSS", "polyreactivity (PSR sort gate)": "high polyreactivity"}, {"sequence": "QVQLVESGGGLVQAGGSLSLSCAASGFIFYRYAMGWYRQAPGKERELVAAITSGGSTKYADSVKGRFTISRDNAKNTVYLQMNSLKPEYTAVYYCAADPFDWFSYYYWGQGTQVTVSS", "polyreactivity (PSR sort gate)": "low polyreactivity"}, {"sequence": "QVQLVESGGGLVQAGGSLRLSCAASGRTFGVNTMGCYRQAPGKEREFVASISTSGGSTYADSVNGRFTISRDNAKNTVYLQMNSLKPEDTAVYYCAKDTDAVYDEYDSWGQGTQVTVSS", "polyreactivity (PSR sort gate)": "low polyreactivity"}, {"sequence": "QVQLQESGGLVQAGGSLRLSCAASGSISGRNVMGWYRQSPGKEREFVASITDGSSNNYADSVKGRFTISRDNAKNTVYLQMNSLKPKDTAVYYCAAYAQRAKSFGYWGRGTQVTVSS", "polyreactivity (PSR sort gate)": "low polyreactivity"}, {"sequence": "QVQLVESGGGLVQGGGSLRLSCAASGSNLYKNPMGWYRPAPGKERELVASITYSGGRTNYADSVKGRFTISRDTAKNTVYLQMNSLKPEDTSVYYCPAAYVYYNPAYRYAPTAVDYDYWGQGTQVTVSS", "polyreactivity (PSR sort gate)": "low polyreactivity"}, {"sequence": "QVHLVESGGGLVQAGGSLRLTCAASGLTFIRYAMGCYRQAPGKERELVAAISSYGGTTYYADSVKGRFTISRDKAKNTVYLQMISLKPEDTSVYYCAAVLTYYRGSTWTFSGFAYDHWGQGTQVTVSS", "polyreactivity (PSR sort gate)": "high polyreactivity"}, {"sequence": "QVQLVESGGGLVQAGGSLRLSCAACGSIFLKYVMGWYRQAPGKERELVAAISFRSGSTYYADSVKGRFTISRDNAKNTVYVQMNSLKPEDTAVYYCAASWTPRYLGFDHWGQGSQVTVSS", "polyreactivity (PSR sort gate)": "high polyreactivity"}, {"sequence": "QVQLEESGGGLVQAGGSLRLSCAASGRTFVPYAMGWYRQAPGKERELVAAINSGGSTYYADSVKGRFTISRDNAKNTVYLQMNSLKPEDTAVYYCAAEYWNSRFSYAYGYWGQGTQVTVSS", "polyreactivity (PSR sort gate)": "high polyreactivity"}, {"sequence": "QRQLVESGGGLVQAGGRLRLSCAASGMTVWDYAMGWYRHATGKERQLVAAISGSGARTYYADSVKWRFTISRDTAKNTVYLQMNSLNPEDTAVYYCAARAVRATAKYEYWGQGTQVTVSS", "polyreactivity (PSR sort gate)": "high polyreactivity"}, {"sequence": "QFQLVESGGGLVQAGGSLRLICAASGIIFKLNAMGWYRQAPGIETELVAAITYRGGTTYYADSVKGRFTISRDNAKNTVYVQMNSLKPEDTAVYYCAVAVTSYSSKKLYYWGQGTQVTVSS", "polyreactivity (PSR sort gate)": "low polyreactivity"}, {"sequence": "QVQLVESGGGLVQAGGSLRLSCAASGSIFGTYAKGWYRQAPGKERELVADISLSGGSTYYADSVKGRFTISRDTAKKSVYLQMNSLKPEDNAVYYCNAESTAYGYVAVYRYDYWGQGTQVTVSS", "polyreactivity (PSR sort gate)": "low polyreactivity"}, {"sequence": "QVQLVESGGGLVQAGGSLRLSCAASGRIFRGYAMGWSRQAPGKERELVAAITSRGGSTYADSVKGRFTISRDNAKNTVYLQMNSLKPEDTAVYYCNAKEGSRYRKYDYWGQGTQVTVSS", "polyreactivity (PSR sort gate)": "low polyreactivity"}, {"sequence": "QVQLVESGGGLVQAGGSLRLSCAASGSTFESYAMGWYRQAPGKERELVAAISWRVGSTYYADSVKGRFTISRDNAKNTVYLQMNSLKPEDTAVYYCASKGWYSHYGGYDYWGQGTQVTVSS", "polyreactivity (PSR sort gate)": "low polyreactivity"}, {"sequence": "QFQLVESGGGLVQAGGSLRLSCAASGSIFKRYAMGWYRQAAGKERELVAAISSRGGNTYYADSVKGRFTISRDNAKNTVYLQMNSLKPEDTAVYYCAAYLWKSKRKLDYWGQGTQVTVSS", "polyreactivity (PSR sort gate)": "high polyreactivity"}]}]}
